Drawing on publication PMC5866549, this text covers modal adhesion force and modal adhesion force (bimodal) for one substance.

Where “and” joins values, the source holds several entries; their conditions need not be identical. Identical values can stand only once.

This assay deals with mucin (purified mucins). As to the kind of experiment: AFM force spectroscopy.

With “SRRP_(53608)-BR, binding region of the serine-rich repeat protein from Lactobacillus reuteri ATCC 53608 (domain or fragment)”, the modal adhesion force is 105 pN; the modal adhesion force (bimodal) is 72 pN and 120 pN.
